Changes are numbered by the printed parent chain.
Key:
[1] = target: T1, human TREM2 (human, UniProt Q9NZC2 19-174, limits assumed); assay: 2nd screen, printed under 10 nM
T1 construct: also called triggering receptor expressed on myeloid cells 2
T1 sequence: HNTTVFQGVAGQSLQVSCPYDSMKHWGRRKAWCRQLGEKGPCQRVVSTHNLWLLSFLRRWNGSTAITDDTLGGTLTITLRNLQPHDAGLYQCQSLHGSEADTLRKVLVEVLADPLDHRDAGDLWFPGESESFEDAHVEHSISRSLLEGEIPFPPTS

[2] = target: T1, human TREM2; assay: 1st screen (110 nM or 10 nM)
[3] = target: T1, human TREM2; assay: 2nd screen 10 nM
[4] = target: T1, human TREM2; assay: 2nd screen 2 nM

B1: V31 (antibody, V domains shown)
VH: EVQLVQSGAEVKKPGESLKISCKGSGYSFTSYWIAWVRQMPGKGLEWMGIIYPGDSETRYSPSFQGQVTISADKSISTAYLQWSSLKASDTAMYFCARQRTFYYDSSDYFDYWGQGTLVTVSS
VL: DIQMTQSPSSVSASVGDRVTITCRASQGISSWLAWYQQKPGKAPKLLIYAASSLQNGVPSRFSGSGSGTDFTLTISSLQPEDFATYFCQQADSFPRTFGQGTKLEIK
- Binding Signal (fold over 6E7 Parental antibody) [1]: 0.73 fold
- Binding Signal (fold over 6E7 Parental antibody) [2]: 0.61 fold

B2: V76 (antibody, V domains shown)
VH: B1 VH with T30G, E57D, S63E, F110S
VL: B1 VL with N56K, T69R
- Binding Signal (fold over 6E7 Parental antibody) [3]: 4.93 fold
- Binding Signal (fold over 6E7 Parental antibody) [4]: 4.34 fold
- Binding Signal (fold over 6E7 Parental antibody) [2]: 4.57 fold

B3: V64 (antibody, V domains shown)
VH: B1 VH with T30Q, E57D, Q99G
VL: B1 VL with Q55A, F94Y
- Binding Signal (fold over 6E7 Parental antibody) [3]: 5.48 fold
- Binding Signal (fold over 6E7 Parental antibody) [4]: 4.88 fold
- Binding Signal (fold over 6E7 Parental antibody) [2]: 5.41 fold

B4: V74 (antibody, V domains shown)
VH: B1 VH with T30A, E57D, T58V, Q99G
VL: B1 VL with N56L
- Binding Signal (fold over 6E7 Parental antibody) [3]: 4.01 fold
- Binding Signal (fold over 6E7 Parental antibody) [4]: 2.54 fold
- Binding Signal (fold over 6E7 Parental antibody) [2]: 3.94 fold

B5: V89 (antibody, V domains shown)
VH: B1 VH with E57D
VL: B1 VL with F94H
- Binding Signal (fold over 6E7 Parental antibody) [3]: 1.46 fold
- Binding Signal (fold over 6E7 Parental antibody) [4]: 0.94 fold
- Binding Signal (fold over 6E7 Parental antibody) [2]: 1.33 fold

B6: V75 (antibody, V domains shown)
VH: B1 VH with E57D, Q99G
VL: B1 VL with N56A, F94Y
- Binding Signal (fold over 6E7 Parental antibody) [3]: 4.52 fold
- Binding Signal (fold over 6E7 Parental antibody) [4]: 3.74 fold
- Binding Signal (fold over 6E7 Parental antibody) [2]: 4.64 fold

B7: V87 (antibody, V domains shown)
VH: B1 VH with T30R, E57D, T58V, S63D, Q99S
VL: B1 VL with N56W
- Binding Signal (fold over 6E7 Parental antibody) [3]: 3.93 fold
- Binding Signal (fold over 6E7 Parental antibody) [4]: 4.86 fold
- Binding Signal (fold over 6E7 Parental antibody) [2]: 3.84 fold

B8: V72 (antibody, V domains shown)
VH: B1 VH with A35G, E57D, Q99G
VL: B1 VL with Q55V, F94Y
- Binding Signal (fold over 6E7 Parental antibody) [3]: 4.01 fold
- Binding Signal (fold over 6E7 Parental antibody) [4]: 2.5 fold
- Binding Signal (fold over 6E7 Parental antibody) [2]: 3.64 fold

B9: V88 (antibody, V domains shown)
VH: B1 VH with T30G, E57D
VL: B1 VL with S53R, N56R, F94S
- Binding Signal (fold over 6E7 Parental antibody) [3]: 5.3 fold
- Binding Signal (fold over 6E7 Parental antibody) [4]: 5.57 fold
- Binding Signal (fold over 6E7 Parental antibody) [2]: 4.92 fold

B10: V77 (antibody, V domains shown)
VH: B1 VH with E57D
VL: B1 VL with L54R
- Binding Signal (fold over 6E7 Parental antibody) [3]: 1.38 fold
- Binding Signal (fold over 6E7 Parental antibody) [4]: 0.83 fold
- Binding Signal (fold over 6E7 Parental antibody) [2]: 1.43 fold

B11: V85 (antibody, V domains shown)
VH: B1 VH with T30R, I50T, E57D, Q99S
VL: B1 VL with L54R
- Binding Signal (fold over 6E7 Parental antibody) [3]: 5.37 fold
- Binding Signal (fold over 6E7 Parental antibody) [4]: 5.41 fold
- Binding Signal (fold over 6E7 Parental antibody) [2]: 5.41 fold

B12: V63 (antibody, V domains shown)
VH: B1 VH with T30R, E57D, Q99S
VL: B1 VL with N56R, S93R
- Binding Signal (fold over 6E7 Parental antibody) [3]: 3.71 fold
- Binding Signal (fold over 6E7 Parental antibody) [4]: 4.91 fold
- Binding Signal (fold over 6E7 Parental antibody) [2]: 3.76 fold

B13: V86 (antibody, V domains shown)
VH: B1 VH with T30G, I34L, E57D, Q65E, Q99S
VL: B1 VL with L54R
- Binding Signal (fold over 6E7 Parental antibody) [3]: 5.02 fold
- Binding Signal (fold over 6E7 Parental antibody) [4]: 5.17 fold
- Binding Signal (fold over 6E7 Parental antibody) [2]: 4.8 fold

B14: V84 (antibody, V domains shown)
VH: B1 VH with S28G, E57D, F110S
VL: B1 VL with A50G
- Binding Signal (fold over 6E7 Parental antibody) [3]: 1.62 fold
- Binding Signal (fold over 6E7 Parental antibody) [4]: 1.45 fold
- Binding Signal (fold over 6E7 Parental antibody) [2]: 1.44 fold

B15: V65 (antibody, V domains shown)
VH: B1 VH with E57D, Q99S
VL: B1 VL
- Binding Signal (fold over 6E7 Parental antibody) [3]: 2.75 fold
- Binding Signal (fold over 6E7 Parental antibody) [4]: 1.29 fold
- Binding Signal (fold over 6E7 Parental antibody) [2]: 2.05 fold

B16: V62 (antibody, V domains shown)
VH: B1 VH with T30G, E57D, S61A, D108G
VL: B1 VL with N56R, Q89G
- Binding Signal (fold over 6E7 Parental antibody) [3]: 2.89 fold
- Binding Signal (fold over 6E7 Parental antibody) [4]: 1.87 fold
- Binding Signal (fold over 6E7 Parental antibody) [2]: 2.49 fold

B17: V61 (antibody, V domains shown)
VH: B1 VH with T30S, E57D, S61N, Q99G
VL: B1 VL with Q55V, F94L
- Binding Signal (fold over 6E7 Parental antibody) [3]: 5.22 fold
- Binding Signal (fold over 6E7 Parental antibody) [4]: 3.63 fold
- Binding Signal (fold over 6E7 Parental antibody) [2]: 5.08 fold

B18: V60 (antibody, V domains shown)
VH: B1 VH with S28H, E57D, T58V, F110S
VL: B1 VL with N56R, Q89G
- Binding Signal (fold over 6E7 Parental antibody) [3]: 3.63 fold
- Binding Signal (fold over 6E7 Parental antibody) [4]: 3.35 fold
- Binding Signal (fold over 6E7 Parental antibody) [2]: 3.26 fold

B19: V73 (antibody, V domains shown)
VH: B1 VH with T30G, E57D, S63G, Q99G
VL: B1 VL with L54R, F94Y
- Binding Signal (fold over 6E7 Parental antibody) [3]: 5.44 fold
- Binding Signal (fold over 6E7 Parental antibody) [4]: 4.17 fold
- Binding Signal (fold over 6E7 Parental antibody) [2]: 5.12 fold
